Reference: the supplement of paper PMC5998384

Key:
HeLa Kyoto [1] = experiment: solubility change mitosis vs G1/S (difference of NP-40 vs SDS log2 ratios) (log2 ratio difference); higher = more soluble in mitosis
HeLa Kyoto [2] = experiment: thermal stability score vs G1/S (z-score of summed log2 fold changes over temperatures); higher = more thermally stable than in G1/S
HeLa Kyoto [3] = experiment: solubility in G1/S (NP-40 vs SDS abundance) (log2 ratio); higher = more soluble; conditions: cell cycle stage: G1/S
HeLa Kyoto [4] = experiment: melting temperature (median over replicates), in situ; higher = more thermally stable
[5] = cell cycle stage: early G1 (4.5 h after nocodazole release)
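For melting temperature (median over replicates), in situ in this document: HeLa Kyoto cells synchronized by double thymidine or nocodazole block, proteins quantified by TMT10plex mass spectrometry, three independent biological replicates.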
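For solubility change mitosis vs G1/S (difference of NP-40 vs SDS log2 ratios) in this document: synchronized HeLa Kyoto cells (double thymidine block for G1/S, nocodazole release for mitosis), protein amounts in NP-40 versus SDS lysates quantified by mass spectrometry, three biological replicates.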
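For solubility in G1/S (NP-40 vs SDS abundance) in this document: HeLa Kyoto cells arrested at G1/S by double thymidine block, proteins quantified by TMT10plex mass spectrometry in mild NP-40 versus SDS extracts, three biological replicates.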
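For thermal stability score vs G1/S (z-score of summed log2 fold changes over temperatures) in this document: synchronized HeLa Kyoto cells, proteins quantified by TMT10plex mass spectrometry, three biological replicates, mitosis taken 0.5 h after nocodazole release, G1/S directly after double thymidine block.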

Sequence	solubility change mitosis (log2) (HeLa Kyoto [1])	thermal stability score (HeLa Kyoto [2]; [5])	thermal stability score (HeLa Kyoto [2]; cell cycle stage: mitosis)	solubility in G1/S (log2) (HeLa Kyoto [3])	melting temperature (HeLa Kyoto [4]; cell cycle stage: G1/S) [°C]	melting temperature (HeLa Kyoto [4]; cell cycle stage: mitosis) [°C]
MAGRLLGKALAAVSLSLALASVTIRSSRCRGIQAFRNSFSSSWFHLNTNVMSGSNGSKENSHNKARTSPYPGSKVERSQVPNEKVGWLVEWQDYKPVEYTAVSVLAGPRWADPQISESNFSPKFNEKDGHVERKSKNGLYEIENGRPRNPAGRTGLVGRGLLGRWGPNHAADPIITRWKRDSSGNKIMHPVSGKHILQFVAIKRKDCGEWAIPGGMVDPGEKISATLKREFGEEALNSLQKTSAEKREIEEKLHKLFSQDHLVIYKGYVDDPRNTDNAWMETEAVNYHDETGEIMDNLMLEAGDDAGKVKWVDINDKLKLYASHSQFIKLVAEKRDAHWSEDSEADCHAL [NUDT9]	0.00145	-0.398	-0.161	0.41	50.3	50.5
MAGSRQRGLRARVRPLFCALLLSLGRFVRGDGVGGDPAVALPHRRFEYKYSFKGPHLVQSDGTVPFWAHAGNAIPSSDQIRVAPSLKSQRGSVWTKTKAAFENWEVEVTFRVTGRGRIGADGLAIWYAENQGLEGPVFGSADLWNGVGIFFDSFDNDGKKNNPAIVIIGNNGQIHYDHQNDGASQALASCQRDFRNKPYPVRAKITYYQNTLTVMINNGFTPDKNDYEFCAKVENMIIPAQGHFGISAATGGLADDHDVLSFLTFQLTEPGKEPPTPDKEISEKEKEKYQEEFEHFQQELDKKKEEFQKGHPDLQGQPAEEIFESVGDRELRQVFEGQNRIHLEIKQLNRQLDMILDEQRRYVSSLTEEISKRGAGMPGQHGQITQQELDTVVKTQHEILRQVNEMKNSMSETVRLVSGMQHPGSAGGVYETTQHFIDIKEHLHIVKRDIDNLVQRNMPSNEKPKCPELPPFPSCLSTVHFIIFVVVQTVLFIGYIMYRSQQEAAAKKFF [LMAN1]	-0.0873	3.5	5.07	0.173	53.3	53.5
MAGTGLVAGEVVVDALPYFDQGYEAPGVREAAAALVEEETRRYRPTKNYLSYLTAPDYSAFETDIMRNEFERLAARQPIELLSMKRYELPAPSSGQKNDITAWQECVNNSMAQLEHQAVRIENLELMSQHGCNAWKVYNENLVHMIEHAQKELQKLRKHIQDLNWQRKNMQLTAGSKLREMESNWVSLVSKNYEIERTIVQLENEIYQIKQQHGEANKENIRQDF [BCAS2]	0.721	-0.858	-0.925	-0.134	50.4	50.3
MAGTSAPGSKRRSEPPAPRPGPPPGTGHPPSKRARGFSAAAAPDPDDPFGAHGDFTADDLEELDTLASQALSQCPAAARDVSSDHKVHRLLDGMSKNPSGKNRETVPIKDNFELEVLQAQYKELKEKMKVMEEEVLIKNGEIKILRDSLHQTESVLEEQRRSHFLLEQEKTQALSDKEKEFSKKLQSLQSELQFKDAEMNELRTKLQTSERANKLAAPSVSHVSPRKNPSVVIKPEACSPQFGKTSFPTKESFSANMSLPHPCQTESGYKPLVGREDSKPHSLRGDSIKQEEAQKSFVDSWRQRSNTQGSILINLLLKQPLIPGSSLSLCHLLSSSSESPAGTPLQPPGFGSTLAGMSGLRTTGSYDGSFSLSALREAQNLAFTGLNLVARNECSRDGDPAEGGRRAFPLCQLPGAVHFLPLVQFFIGLHCQALQDLAAAKRSGAPGDSPTHSSCVSSGVETNPEDSVCILEGFSVTALSILQHLVCHSGAVVSLLLSGVGADSAAGEGNRSLVHRLSDGDMTSALRGVADDQGQHPLLKMLLHLLAFSSAATGHLQASVLTQCLKVLVKLAENTSCDFLPRFQCVFQVLPKCLSPETPLPSVLLAVELLSLLADHDQLAPQLCSHSEGCLLLLLYMYITSRPDRVALETQWLQLEQEVVWLLAKLGVQSPLPPVTGSNCQCNVEVVRALTVMLHRQWLTVRRAGGPPRTDQQRRTVRCLRDTVLLLHGLSQKDKLFMMHCVEVLHQFDQVMPGVSMLIRGLPDVTDCEEAALDDLCAAETDVEDPEVECG [ATRIP]	0.065	0.257	0.455	0.243	50.9	51.5
MAGVACLGKAADADEWCDSGLGSLGPDAAAPGGPGLGAELGPGLSWAPLVFGYVTEDGDTALHLAVIHQHEPFLDFLLGFSAGTEYMDLQNDLGQTALHLAAILGETSTVEKLYAAGAGLCVAERRGHTALHLACRVGAHACARALLQPRPRRPREAPDTYLAQGPDRTPDTNHTPVALYPDSDLEKEEEESEEDWKLQLEAENYEGHTPLHVAVIHKDVEMVRLLRDAGADLDKPEPTCGRSPLHLAVEAQAADVLELLLRAGANPAARMYGGRTPLGSAMLRPNPILARLLRAHGAPEPEGEDEKSGPCSSSSDSDSGDEGDEYDDIVVHSSRSQTRLPPTPASKPLPDDPRPV [NFKBIB]	-0.224	0.217	0.0879	0.533	49.3	50
MAGVEEVAASGSHLNGDLDPDDREEGAASTAEEAAKKKRRKKKKSKGPSAAGEQEPDKESGASVDEVARQLERSALEDKERDEDDEDGDGDGDGATGKKKKKKKKKRGPKVQTDPPSVPICDLYPNGVFPKGQECEYPPTQDGRTAAWRTTSEEKKALDQASEEIWNDFREAAEAHRQVRKYVMSWIKPGMTMIEICEKLEDCSRKLIKENGLNAGLAFPTGCSLNNCAAHYTPNAGDTTVLQYDDICKIDFGTHISGRIIDCAFTVTFNPKYDTLLKAVKDATNTGIKCAGIDVRLCDVGEAIQEVMESYEVEIDGKTYQVKPIRNLNGHSIGQYRIHAGKTVPIVKGGEATRMEEGEVYAIETFGSTGKGVVHDDMECSHYMKNFDVGHVPIRLPRTKHLLNVINENFGTLAFCRRWLDRLGESKYLMALKNLCDLGIVDPYPPLCDIKGSYTAQFEHTILLRPTCKEVVSRGDDY [METAP2]	-0.0109	-2.19	-2.92	-0.0489	58.1	57
MAHSKTRTNDGKITYPPGVKEISDKISKEEMVRRLKMVVKTFMDMDQDSEEEKELYLNLALHLASDFFLKHPDKDVRLLVACCLADIFRIYAPEAPYTSPDKLKDIFMFITRQLKGLEDTKSPQFNRYFYLLENIAWVKSYNICFELEDSNEIFTQLYRTLFSVINNGHNQKVHMHMVDLMSSIICEGDTVSQELLDTVLVNLVPAHKNLNKQAYDLAKALLKRTAQAIEPYITNFFNQVLMLGKTSISDLSEHVFDLILELYNIDSHLLLSVLPQLEFKLKSNDNEERLQVVKLLAKMFGAKDSELASQNKPLWQCYLGRFNDIHVPIRLECVKFASHCLMNHPDLAKDLTEYLKVRSHDPEEAIRHDVIVSIVTAAKKDILLVNDHLLNFVRERTLDKRWRVRKEAMMGLAQIYKKYALQSAAGKDAAKQIAWIKDKLLHIYYQNSIDDRLLVERIFAQYMVPHNLETTERMKCLYYLYATLDLNAVKALNEMWKCQNLLRHQVKDLLDLIKQPKTDASVKAIFSKVMVITRNLPDPGKAQDFMKKFTQVLEDDEKIRKQLEVLVSPTCSCKQAEGCVREITKKLGNPKQPTNPFLEMIKFLLERIAPVHIDTESISALIKQVNKSIDGTADDEDEGVPTDQAIRAGLELLKVLSFTHPISFHSAETFESLLACLKMDDEKVAEAALQIFKNTGSKIEEDFPHIRSALLPVLHHKSKKGPPRQAKYAIHCIHAIFSSKETQFAQIFEPLHKSLDPSNLEHLITPLVTIGHIALLAPDQFAAPLKSLVATFIVKDLLMNDRLPGKKTTKLWVPDEEVSPETMVKIQAIKMMVRWLLGMKNNHSKSGTSTLRLLTTILHSDGDLTEQGKISKPDMSRLRLAAGSAIVKLAQEPCYHEIITLEQYQLCALAINDECYQVRQVFAQKLHKGLSRLRLPLEYMAICALCAKDPVKERRAHARQCLVKNINVRREYLKQHAAVSEKLLSLLPEYVVPYTIHLLAHDPDYVKVQDIEQLKDVKECLWFVLEILMAKNENNSHAFIRKMVENIKQTKDAQGPDDAKMNEKLYTVCDVAMNIIMSKSTTYSLESPKDPVLPARFFTQPDKNFSNTKNYLPPEMKSFFTPGKPKTTNVLGAVNKPLSSAGKQSQTKSSRMETVSNASSSSNPSSPGRIKGRLDSSEMDHSENEDYTMSSPLPGKKSDKRDDSDLVRSELEKPRGRKKTPVTEQEEKLGMDDLTKLVQEQKPKGSQRSRKRGHTASESDEQQWPEEKRLKEDILENEDEQNSPPKKGKRGRPPKPLGGGTPKEEPTMKTSKKGSKKKSGPPAPEEEEEEERQSGNTEQKSKSKQHRVSRRAQQRAESPESSAIESTQSTPQKGRGRPSKTPSPSQPKKNVRVGRSKQAATKENDSSEEVDVFQGSSPVDDIPQEETEEEEVSTVNVRRRSAKRERR [PDS5B]	0.216	-0.564	0.534	-0.302	49.2	49.4
MAHVGSRKRSRSRSRSRGRGSEKRKKKSRKDTSRNCSASTSQGRKASTAPGAEASPSPCITERSKQKARRRTRSSSSSSSSSSSSSSSSSSSSSSSSSDGRKKRGKYKDKRRKKKKKRKKLKKKGKEKAEAQQVEALPGPSLDQWHRSAGEEEDGPVLTDEQKSRIQAMKPMTKEEWDARQSIIRKVVDPETGRTRLIKGDGEVLEEIVTKERHREINKQATRGDCLAFQMRAGLLP [ARL6IP4]	0.853	-1.78	-3.1	-0.997	52.6	52
MAIKSIASRLRGSRRFLSGFVAGAVVGAAGAGLAALQFFRSQGAEGALTGKQPDGSAEKAVLEQFGFPLTGTEARCYTNHALSYDQAKRVPRWVLEHISKSKIMGDADRKHCKFKPDPNIPPTFSAFNEDYVGSGWSRGHMAPAGNNKFSSKAMAETFYLSNIVPQDFDNNSGYWNRIEMYCRELTERFEDVWVVSGPLTLPQTRGDGKKIVSYQVIGEDNVAVPSHLYKVILARRSSVSTEPLALGAFVVPNEAIGFQPQLTEFQVSLQDLEKLSGLVFFPHLDRTSDIRNICSVDTCKLLDFQEFTLYLSTRKIEGARSVLRLEKIMENLKNAEIEPDDYFMSRYEKKLEELKAKEQSGTQIRKPS [EXOG]	-0.0598	2.74	-1.52	0.21	52.8	51.3
MAIQFRSLFPLALPGMLALLGWWWFFSRKKGHVSSHDEQQVEAGAVQLRADPAIKEPLPVEDVCPKVVSTPPSVTEPPEKELSTVSKLPAEPPALLQTHPPCRRSESSGILPNTTDMRLRPGTRRDDSTKLELALTGGEAKSIPLECPLSSPKGVLFSSKSAEVCKQDSPFSRVPRKVQPGYPVVPAEKRSSGERARETGGAEGTGDAVLGEKVLEEALLSREHVLELENSKGPSLASLEGEEDKGKSSSSQVVGPVQEEEYVAEKLPSRFIESAHTELAKDDAAPAPPVADAKAQDRGVEGELGNEESLDRNEEGLDRNEEGLDRNEESLDRNEEGLDRNEEIKRAAFQIISQVISEATEQVLATTVGKVAGRVCQASQLQGQKEESCVPVHQKTVLGPDTAEPATAEAAVAPPDAGLPLPGLPAEGSPPPKTYVSCLKSLLSSPTKDSKPNISAHHISLASCLALTTPSEELPDRAGILVEDATCVTCMSDSSQSVPLVASPGHCSDSFSTSGLEDSCTETSSSPRDKAITPPLPESTVPFSNGVLKGELSDLGAEDGWTMDAEADHSGGSDRNSMDSVDSCCSLKKTESFQNAQAGSNPKKVDLIIWEIEVPKHLVGRLIGKQGRYVSFLKQTSGAKIYISTLPYTQSVQICHIEGSQHHVDKALNLIGKKFKELNLTNIYAPPLPSLALPSLPMTSWLMLPDGITVEVIVVNQVNAGHLFVQQHTHPTFHALRSLDQQMYLCYSQPGIPTLPTPVEITVICAAPGADGAWWRAQVVASYEETNEVEIRYVDYGGYKRVKVDVLRQIRSDFVTLPFQGAEVLLDSVMPLSDDDQFSPEADAAMSEMTGNTALLAQVTSYSPTGLPLIQLWSVVGDEVVLINRSLVERGLAQWVDSYYTSL [AKAP1]	-0.0592	0.769	1.64	-0.0583	50.3	50.6
